Results reported in patent US8620595B2, “Methods for determining the retention of peptides in reverse phase chromatography using linear solvent strength theory” (University of Manitoba, priority 2010, dated 2013).

Assay: Determination of S from retention time shift Δ relative to P3 at two gradient slopes, nano-RP-HPLC MS of spiked tryptic digest
Assay type: physicochemical
Conditions: experimental S value, LC-MS runs of model peptide mixture
Description: Proteins and protein digestion. Tryptic digests of two different protein mixtures were utilized. The “test peptide mixture” contained human proteins: albumin, transferrin, fibrinogen. The “model peptide mixture” contained bovine proteins: albumin, transferrin, fibrinogen, catalase. Equimolar mixtures of the proteins were prepared, reduced with DTT, alkylated with iodoacetamide and digested with sequencing-grade modified trypsin (Promega, Madison, Wis.). Prior to nano-LC MS/MS analysis, mixtures were diluted with buffer A (0.1% formic acid in water) and spiked with the 6 standard peptides P1-P6^24 for test mixture and the set of 11 model peptides (described elsewhere^23) for a model mixture. All dilutions were performed to provide an injection of ˜100 fmole of each component into the nanoRP-HPLC MS system.
Chromatography. All chromatographic experiments were conducted at a controlled temperature of 22-23° C. For isocratic measurement of the slope values, a micro-Agilent 1100 Series system (Agilent Technologies, Wilmington, Del.), was used with a 1 mm×100 mm 5 μm Luna C18(2) (Phenomenex, Torrance, Calif.) column and a UV detector operated at 214 nm. Both eluents A (water) and B (acetonitrile) contained 0.1% formic acid as ion-pairing modifier. Stock solutions of the 11 standard peptides (˜1 mg/ml) were prepared by dissolving each peptide in 1 ml of 0.1% FA in water or a 20% acetonitrile solution. Ten microliters of sample was injected. Individual peptides were diluted to provide ˜0.5-1 μg injection of each component using a 10 μl loop. The dead volume of the column and connecting tubings was determined by injecting a non-retained compound (water) and measuring the elution time of the negative peak at a 150 μL/min flow rate. Retention factors for isocratic elution were calculated using the formula: k=(tR−t0)/t0c; where tR is the retention time, t0 is the system (column and tubings) dead time, and t0c is the column dead time. Additional details of measuring S-values via constructing log k vs. φ plots are provided elsewhere.^24 The nano-LC MS/MS experiments were conducted using splitless Tempo LC system (Eksigent, Dublin, Calif.) with 20 μL sample injection via a 300 μm×5 mm PepMap100 (Dionex, Sunnyvale, Calif.) trap-column and a 100 μm×200 mm analytical column packed with 5 μm Luna C18(2) (Phenomenex, Torrance, Calif.). Tryptic digests of the mixtures were spiked with calibrating peptides (see Table 1) as described above, injected on the trap-column using buffer A as a carrier and separated using 0.1875, 0.375 and 0.75 percent acetonitrile per minute linear gradients starting from 0.5% acetonitrile at 500 nL/min flow rate. The composition of both eluents A and B was identical to one described above for normal-flow system. Gradient programs consisted of a 0.5-40% linear increase of buffer B in 213.2, 106.6 and 53.3 minutes, respectively. After each run the gradient columns were washed with 80% B for 3 minutes and equilibrated with the starting A:B ratio for 18 minutes.
Mass spectrometry. A QStar Elite mass spectrometer (Applied Biosystems, Foster City, Calif.) equipped with a MicrolonSpray II source was used in standard MS/MS information dependent acquisition (IDA) mode for LC-ESI analyses. Protein identification was performed using Protein Pilot 3.0 (Applied Biosystems, Foster City, Calif.) with a restricted database containing target protein sequences and the sequences of standard peptides. Retention times of identified species (peak maxima) were assigned manually.
These two ways of measurement have been combined to provide a highly accurate and fast way of determining S for an extensive sets of peptides (see FIG. 3). First, precise isocratic measurement of S is performed in normal flow conditions with UV detection for a set of synthetic “S-calibrating” peptides. […]

Compared with LLSLADFR, YYGYTGAFR is higher in “Slope (experimental)” value: 25.239 for the first, 29.343 for the second.

Compared with KNWIQYK, THFSGDVQR is higher in “Slope (experimental)” value: 31.919 for the first, 42.53 for the second.

First: EYEATLEECCAK
Second: MKGLIDEVDQDFTSR
The “Slope (experimental)” value of the first is higher: 35.459 for the first, 33.2 for the second.

Compared with RPCFSALTPDETYVPK, IPSKVDSALYLGSR is lower in “Slope (experimental)” value: 38.129 for the first, 35.773 for the second.

First: YQLSVSK
Second: LLEACTFHKP
The “Slope (experimental)” value of the first is lower: 31.531 for the first, 36.237 for the second.

First: TPCTVTCNIPVVSGK
Second: LASAADFR
The “Slope (experimental)” value of the first is higher: 34.721 for the first, 29.663 for the second.

First: TSDANINWNNLKDKK
Second: VIEQVQR
The “Slope (experimental)” value of the first is higher: 39.525 for the first, 38.258 for the second.

Compared with LAHEDPDYGLR, TYDSYLGDDYVR is lower in “Slope (experimental)” value: 36.832 for the first, 31.66 for the second.

Going from LAGSASAHAFR to KYAAELHLVHWNTK, the “Slope (experimental)” value falls from 40.64 to 39.205.

Compared with SILENLR, QTALVELLK is lower in “Slope (experimental)” value: 24.865 for the first, 24.2 for the second.

First: IVNLR
Second: ILNKQQDDFGK
The “Slope (experimental)” value of the first is lower: 29.724 for the first, 40.011 for the second.

First: MEDEAESLEDLGFK
Second: AEFVEVTK
The “Slope (experimental)” value of the first is higher: 29.603 for the first, 29.046 for the second.

First: KLGAPSITCVR
Second: ESGLYFIRPLK
The “Slope (experimental)” value of the first is higher: 37.615 for the first, 30.232 for the second.

Compared with VFEHIGKR, KTYDSYLGDDYVR is lower in “Slope (experimental)” value: 41.112 for the first, 35.968 for the second.

Going from ESPQTHYYAVAVVK to GDSVSQGTGLAPGSPR, the “Slope (experimental)” value rises from 36.262 to 38.571.

First: QVLLHQQALFGK
Second: RAFALECIR
The “Slope (experimental)” value of the first is higher: 33.087 for the first, 31.043 for the second.

Going from FNSANDDNVTQVR to VWPHGDYPLIPVGK, the “Slope (experimental)” value falls from 38.415 to 34.183.

Compared with RLCENIAGHLK, TVMENFVAFVDK is lower in “Slope (experimental)” value: 40.229 for the first, 28.849 for the second.

Compared with CLASIAK, LCQLCAGK is higher in “Slope (experimental)” value: 30.212 for the first, 34.229 for the second.

Going from ISQLTNMGPTK to LVNELTEFAK, the “Slope (experimental)” value falls from 33.29 to 27.906.

Going from ILESGPFVSCVKK to LSQKFPK, the “Slope (experimental)” value rises from 34.299 to 38.913.

First: LGAPSITCVR
Second: LLGGGSLSSSLHAAAFR
The “Slope (experimental)” value of the first is lower: 32.708 for the first, 35.968 for the second.

First: LLSLLHFR
Second: LGEYGFQNALIVR
The “Slope (experimental)” value of the first is lower: 28.039 for the first, 29.764 for the second.

First: AAANFFSASCVPCADQSSFPK
Second: EDLIWK [tryptic peptide detected in the model peptide mixture]
The “Slope (experimental)” value of the first is higher: 35.1 for the first, 21.902 for the second.

Compared with LLVAAHFR, RHPYFYAPELLYYANK is higher in “Slope (experimental)” value: 31.212 for the first, 35.968 for the second.

First: CLMEGAGDVAFVK
Second: CGLVPVLAENYK
The “Slope (experimental)” value of the first is higher: 30.666 for the first, 27.604 for the second.

Going from LYKELPDPQESIQR to DTDFKLNELR, the “Slope (experimental)” value falls from 39.098 to 30.459.

Compared with NTVDSVSR, MSTITGPVPR is lower in “Slope (experimental)” value: 40.092 for the first, 32.509 for the second.

Going from LLHLAHFR to ELPDPQESIQR, the “Slope (experimental)” value rises from 33.837 to 34.299.

Compared with LLIEMEDWKGDK, ECHLAQVPSHAVVAR is higher in “Slope (experimental)” value: 30.791 for the first, 44.148 for the second.

Compared with LLIEMEDWK, LDGSLDFK is lower in “Slope (experimental)” value: 26.865 for the first, 25.689 for the second.

First: LLSLAHFR
Second: TSTADYASFK
The “Slope (experimental)” value of the first is lower: 29.303 for the first, 30.833 for the second.

Going from NWIQYK to ETYGDMADCCEK, the “Slope (experimental)” value rises from 26.629 to 36.36.

With AMTNLR the “Slope (experimental)” value was 32.841.

Same assay, conditions: experimental S, LC-MS runs of model peptide mixture, formic acid

Compared with KANEGLTWNSLKDK, ALLEMQQTK is lower in “Slope (experimental)” value: 35.507 for the first, 26.288 for the second.

Going from VTALYEGFTVQNEANK to FDEFFSAGCAPGSPR, the “Slope (experimental)” value falls from 30.77 to 28.654.

First: VDSALYLGSR
Second: ARPATATVGQK
The “Slope (experimental)” value of the first is lower: 27.122 for the first, 51.675 for the second.

First: AAQKPDVLTTGGGNPVGDKLNSLTVGPR
Second: WCTISTHEANK
The “Slope (experimental)” value of the first is higher: 41.986 for the first, 37.234 for the second.

First: DKDDFFTR
Second: VHKECCHGDLLECADDR [fragment from bovine albumin]
The “Slope (experimental)” value of the first is lower: 25.342 for the first, 42.014 for the second.

Going from TSHMDCIK to DSLFNYQK, the “Slope (experimental)” value falls from 40.393 to 24.58.

Going from “DLLFR [tryptic peptide detected in the model peptide mixture]” to QSPVDIDTK, the “Slope (experimental)” value rises from 18.36 to 31.703.

Going from KENFEVLCK to VVWCAVGPEEQKK, the “Slope (experimental)” value rises from 27.567 to 33.2.

First: KFWGK
Second: HSTVFDNLPNPEDRK
The “Slope (experimental)” value of the first is lower: 27.604 for the first, 36.807 for the second.

Going from LLCLDGTR to SHCIAEVEK, the “Slope (experimental)” value rises from 25.325 to 41.223.

Going from AAQKPDVLTTGGGNPVGDK to RHPEYAVSVLLR, the “Slope (experimental)” value falls from 41.223 to 32.553.

Going from NCPDKFCLFK to SFQLFGSPPGQR, the “Slope (experimental)” value falls from 28.518 to 24.764.

Compared with HMDGYGSHTFK, “VTGENDKYR [moderately sized, hydrophilic tryptic species of the model peptide mixture]” is higher in “Slope (experimental)” value: 41.758 for the first, 49.044 for the second.

Going from GDKELLIDNEK to KGSNFQLDQLQGR, the “Slope (experimental)” value rises from 32.311 to 33.883.

First: KNYELLCGDNTR
Second: GRQNQVQDNENVVNEYSSHLEK
The “Slope (experimental)” value of the first is lower: 33.631 for the first, 42.444 for the second.

Going from AVLKDGPLTGTYR to GEADALNLDGGYIYTAGK, the “Slope (experimental)” value falls from 35.435 to 31.382.

Compared with VLNEEQR, AVVQDPALKPLALVYGEATSR is lower in “Slope (experimental)” value: 40.229 for the first, 35.627 for the second.

Compared with DNCCILDER, SIEDLR is lower in “Slope (experimental)” value: 28.077 for the first, 28.058 for the second.

First: DDPHACYSTVFDKLK
Second: KQTALVELLK
The “Slope (experimental)” value of the first is higher: 35.483 for the first, 27.642 for the second.

In the case of LGGGGGGDFR, the “Slope (experimental)” value is reported as 31.043.

Same assay, conditions: model peptide mixture (tryptic digest of bovine proteins), 0.75 and 0.1875% acetonitrile per minute gradients, formic acid, S from Δ vs. S curve of S-calibrating peptides

With “VHKECCHGDLLECADDR [fragment from bovine albumin]” the “experimental S-value” was ~42.

First: KPVTEAQSCHLAVAPNHAWSR (KPVTEAQSCHLAVAPNHAVVSR) [tryptic peptide of the model peptide mixture, 5 positively charged groups]
Second: DLLFR [tryptic peptide detected in the model peptide mixture]
The “experimental S-value” of the first is higher: 49.5 for the first, 18.4 for the second.

Going from “EDLIWK [tryptic peptide detected in the model peptide mixture]” to “VTGENDKYR [moderately sized, hydrophilic tryptic species of the model peptide mixture]”, the “experimental S-value” rises from 21.9 to 49.0.
